The results in this text go back to article PMC8477557.

The test addresses CD123 extracellular domain (human (cDNA of L-428 cells)) (UniProt P26951). Nature of the test: SPR. The settings on record: bispecific antibody.

Sequence of CD123 extracellular domain (human (cDNA of L-428 cells)) (P26951 19-305): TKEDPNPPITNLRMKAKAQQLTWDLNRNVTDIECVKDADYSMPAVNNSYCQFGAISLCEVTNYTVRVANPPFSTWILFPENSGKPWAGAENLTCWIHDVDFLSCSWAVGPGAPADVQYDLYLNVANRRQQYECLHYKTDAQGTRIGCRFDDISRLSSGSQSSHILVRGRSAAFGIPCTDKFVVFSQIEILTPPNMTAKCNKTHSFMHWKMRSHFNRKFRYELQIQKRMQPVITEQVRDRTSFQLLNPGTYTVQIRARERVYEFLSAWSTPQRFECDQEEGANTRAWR

For the substance “1 × SIRPα-αCD123 fusion antibody (from UniProt P78324 31-149)”, the dissociation constant (Kd) (as a rule, a measure of binding affinity in units of concentration) stood at 2.74 nM.

As for “2 × SIRPα-αCD123 fusion antibody (from UniProt P78324 31-149; P78324 31-149)”, the Kd came to 2.34 nM.
